Article PMC3792639, “Complex structure of type VI peptidoglycan muramidase effector and a cognate immunity protein” (Acta Crystallographica Section D: Biological Crystallography, 2013)

T1: Tse3 (type VI secretion exported 3), native recombinant protein (P. aeruginosa, UniProt Q9HYC5 1-408)
T1 construct: Tse3, type VI secretion exported 3, peptidoglycan muramidase effector of Pseudomonas aeruginosa; full-length, synthetic gene in pET-22b (NdeI/XhoI); Removal of the His tag is not mentioned; also called muramidase effector; source: E. coli BL21(DE3), purified (Ni-NTA, cation exchange, SEC)
T1 sequence: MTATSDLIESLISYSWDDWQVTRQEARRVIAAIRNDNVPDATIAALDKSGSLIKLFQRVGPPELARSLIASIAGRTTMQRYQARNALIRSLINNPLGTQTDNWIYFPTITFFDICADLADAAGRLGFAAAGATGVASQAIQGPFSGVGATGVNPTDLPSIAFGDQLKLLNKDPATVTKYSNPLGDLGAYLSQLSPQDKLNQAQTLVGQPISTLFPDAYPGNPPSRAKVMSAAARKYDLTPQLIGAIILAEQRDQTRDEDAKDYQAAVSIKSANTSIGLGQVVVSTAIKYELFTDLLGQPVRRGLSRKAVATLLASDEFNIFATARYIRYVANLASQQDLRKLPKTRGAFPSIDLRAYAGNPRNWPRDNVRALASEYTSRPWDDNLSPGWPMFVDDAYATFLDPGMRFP


Each binder was assayed against T1, Tse3 (type VI secretion exported 3), … (assay: SPR; Biacore 3000, 298 K; Tse3 immobilised on a CM5 chip (2689.1-3396.3 RU); Tsi3 injected, single-cycle kinetics, five concentrations (0.02-1.62 µM for wild type, E103A, Q124A; 0.1-8.1 µM for R60A, S99A, E126A); running buffer 50 mM HEPES pH 7.5, 100 mM NaCl, 0.005% Tween-20; 1:1 Langmuir fit). Settings: both partners purified.

Row | Binder | Kd | kon
1 | Tsi3, truncated, without the N-terminal signal peptide (wild type) (natural protein, Tsi3, immunity protein of Tse3, Pseudomonas aeruginosa; truncated, without the N-terminal signal peptide (residues 1-20); synthetic gene in pET-22b (NdeI/XhoI); also called wild-type Tsi3; cognate immunity protein; source: E. coli BL21(DE3), purified (Ni-NTA, ion exchange, SEC)) GVDFDKTLTHPNGLVVERPVGFDARRSAEGFRFDEGGKLRNPRQLEVQRQDAPPPPDLASRRLGDGEARYKVEEDDGGSAGSEYRLWAAKPAGARWIVVSASEQSEDGEPTFALAWALLERARLQ | 28.1 nM | 12900 M⁻¹ s⁻¹
2 | Tsi3 Q124A (natural protein, Tsi3, Pseudomonas aeruginosa, mutant of the truncated construct without the signal peptide (residues 1-20)) GVDFDKTLTHPNGLVVERPVGFDARRSAEGFRFDEGGKLRNPRQLEVQRQDAPPPPDLASRRLGDGEARYKVEEDDGGSAGSEYRLWAAKPAGARWIVVSASEASEDGEPTFALAWALLERARLQ | 58.8 nM | 17300 M⁻¹ s⁻¹
3 | Tsi3 E126A (natural protein, Tsi3, Pseudomonas aeruginosa, mutant of the truncated construct without the signal peptide (residues 1-20)) GVDFDKTLTHPNGLVVERPVGFDARRSAEGFRFDEGGKLRNPRQLEVQRQDAPPPPDLASRRLGDGEARYKVEEDDGGSAGSEYRLWAAKPAGARWIVVSASEQSADGEPTFALAWALLERARLQ | 417 nM | 12100 M⁻¹ s⁻¹
4 | Tsi3 E103A (natural protein, Tsi3, Pseudomonas aeruginosa, mutant of the truncated construct without the signal peptide (residues 1-20)) GVDFDKTLTHPNGLVVERPVGFDARRSAEGFRFDEGGKLRNPRQLEVQRQDAPPPPDLASRRLGDGEARYKVEEDDGGSAGSAYRLWAAKPAGARWIVVSASEQSEDGEPTFALAWALLERARLQ | 43.6 nM | 14300 M⁻¹ s⁻¹
5 | Tsi3 S99A (natural protein, Tsi3, Pseudomonas aeruginosa, mutant of the truncated construct without the signal peptide (residues 1-20)) GVDFDKTLTHPNGLVVERPVGFDARRSAEGFRFDEGGKLRNPRQLEVQRQDAPPPPDLASRRLGDGEARYKVEEDDGGAAGSEYRLWAAKPAGARWIVVSASEQSEDGEPTFALAWALLERARLQ | 3290 nM | 8990 M⁻¹ s⁻¹

The binders below were run against T1, Tse3 (type VI secretion exported 3), … (assay: not stated; stoichiometry observed in solution; method not given). Settings: both partners purified.

Row | Binder | stoichiometry N
6 | Tsi3, truncated, without the N-terminal signal peptide (wild type) (natural protein, Tsi3, immunity protein of Tse3, Pseudomonas aeruginosa; truncated, without the N-terminal signal peptide (residues 1-20); synthetic gene in pET-22b (NdeI/XhoI); also called wild-type Tsi3; cognate immunity protein; source: E. coli BL21(DE3), purified (Ni-NTA, ion exchange, SEC)) GVDFDKTLTHPNGLVVERPVGFDARRSAEGFRFDEGGKLRNPRQLEVQRQDAPPPPDLASRRLGDGEARYKVEEDDGGSAGSEYRLWAAKPAGARWIVVSASEQSEDGEPTFALAWALLERARLQ | 1
